Data: article PMC5856381

Molecular target: recombinant haptoglobin Hp1S, C1r-LP processed (rHp 1–1) (human) (UniProt P00738)
Assay: non-reducing SDS-PAGE; Coomassie-stained gel of non-reduced protein samples; disulfide-linked dimers and multimers

- stoichiometry N: 2
Substance: recombinant haptoglobin Hp1S, C1r-LP processed (rHp 1–1) (from UniProt P00738-2 19-101) (natural protein)
